To fix the notation:
B1: Retinoblastoma-associated protein (Homo sapiens), P06400 (parent)
chain: MPPKTPRKTAATAAAAAAEPPAPPPPPPPEEDPEQDSGPEDLPLVRLEFEETEEPDFTALCQKLKIPDHVRERAWLTWEKVSSVDGVLGGYIQKKKELWGICIFIAAVDLDEMSFTFTELQKNIEISVHKFFNLLKEIDTSTKVDNAMSRLLKKYDVLFALFSKLERTCELIYLTQPSSSISTEINSALVLKVSWITFLLAKGEVLQMEDDLVISFQLMLCVLDYFIKLSPPMLLKEPYKTAVIPINGSPRTPRRGQNRSARIAKQLENDTRIIEVLCKEHECNIDEVKNVYFKNFIPFMNSLGLVTSNGLPEVENLSKRYEEIYLKNKDLDARLFLDHDKTLQTDSIDSFETQRTPRKSNLDEEVNVIPPHTPVRTVMNTIQQLMMILNSASDQPSENLISYFNNCTVNPKESILKRVKDIGYIFKEKFAKAVGQGCVEIGSQRYKLGVRLYYRVMESMLKSEEERLSIQNFSKLLNDNIFHMSLLACALEVVMATYSRSTSQNLDSGTDLSFPWILNVLNLKAFDFYKVIESFIKAEGNLTREMIKHLERCEHRIMESLAWLSDSPLFDLIKQSKDREGPTDHLESACPLNLPLQNNHTAADMYLSPVRSPKKKGSTTRVNSTANAETQATSAFQTQKPLKSTSLSLFYKKVYRLAYLRLNTLCERLLSEHPELEHIIWTLFQHTLQNEYELMRDRHLDQIMMCSMYGICKVKNIDLKFKIIVTAYKDLPHAVQETFKRVLIKEEEYDSIIVFYNSVFMQRLKTNILQYASTRPPTLSPIPHIPRSPYKFPSSPLRIPGGNIYISPLKSPYKISEGLPTPTKMTPRSRILVSIGESFGTSEKFQKINQMVCNSDRVLKRSAEGSNPPKPLKKLRFDIEGSDEADGSKHLPGESKFQQKLAEMTSTRTRMQKQKMNDSMDTSNKEEK

This assay covers variants of B1. Particulars: with e2f1_human E2F1, Q01094.
Chain of e2f1_human E2F1, Q01094 (Q01094 whole entry): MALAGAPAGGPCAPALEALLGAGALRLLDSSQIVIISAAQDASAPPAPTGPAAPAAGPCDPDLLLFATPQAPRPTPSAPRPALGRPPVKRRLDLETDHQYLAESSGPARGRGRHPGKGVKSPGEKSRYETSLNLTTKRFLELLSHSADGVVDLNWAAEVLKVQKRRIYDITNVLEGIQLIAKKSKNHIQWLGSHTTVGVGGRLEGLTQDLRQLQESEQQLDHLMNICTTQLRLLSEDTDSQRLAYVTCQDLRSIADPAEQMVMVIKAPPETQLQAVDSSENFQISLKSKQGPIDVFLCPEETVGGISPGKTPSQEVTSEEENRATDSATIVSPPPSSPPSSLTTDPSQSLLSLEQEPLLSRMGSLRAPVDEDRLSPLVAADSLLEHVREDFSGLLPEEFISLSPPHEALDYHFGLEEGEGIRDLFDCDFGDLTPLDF
With S612A, the “effect of a mutation on the interaction” value was “decreasing interaction”.

The record behind these values is IntAct's records for PubMed 17380128.
